Patent US9458465B2, “Compositions and methods to modulate cell membrane resealing” (RUTGERS, THE STATE UNIVERSITY OF NEW JERSEY, priority 2007, dated 2016)

Legend:
[1] = tested on: FDB muscle fibers from wild type (WT) mice; test: FM1-43 dye entry after UV-laser damage, wild type FDB muscle fibers; assay type: cell-based; settings: WT fibers; 2 μM zinc-ionophore
Procedure: (§1) FIG. 20. Protective effect of zinc on membrane repair is lost in mg53−/− skeletal muscle. (a) individual flexor digitorum brevis (FDB) muscle fibers were isolated from wild type (WT) mice (3-6 months). A strong UV laser was applied to the FDB fiber that caused local damage to the muscle (arrow). Entry of FM1-43 fluorescent dye (2.5 μM) was used as an indicator for the measurement of membrane repair capacity. The images were taken 200 s following UV irradiation (control). […] (d) Schematic diagram of zinc-binding motifs in MG53. The amino-terminus of MG53 contains two putative zinc-binding motifs: one located at the RING motif (a.a. 1-56, human cDNA), and the other located at the B-box motif (a.a. 86-117, human cDNA). The specific amino acids that participate in zinc-binding are indicated.
as §1, with “Protective” for “FIG. 20. Protective”, “To access membrane repair capacity,” for “(a)”, “months) (FIG. 20a).” for “months).”, “Summary data for panel a and b (FIG. 20c). […]” for “(d)”, “indicated (FIG. 20d).” for “indicated.”

[2] = tested on: FDB muscle fibers from mg53−/− mice; test: FM1-43 dye entry after UV-laser damage, mg53−/− FDB muscle fibers; assay type: cell-based; settings: mg53−/− fibers; +Zn-HPT
Procedure: as §1
as §1, with “Protective” for “FIG. 20. Protective”, “To access membrane repair capacity,” for “(a)”, “months) (FIG. 20a).” for “months).”, “Summary data for panel a and b (FIG. 20c). […]” for “(d)”, “indicated (FIG. 20d).” for “indicated.”

[3] = tested on: C2C12 cells expressing GFP-MG53; test: GFP-MG53 redistribution on agent application without injury; assay type: cell-based, murine; settings: 20 μM Zn-HPT, prolonged incubation (15 min)
From the text: Extracellular zinc entry is essential for MG53-mediated vesicle translocation to acute membrane injury sites. To follow the process of intracellular vesicle translocation associated with repair of acute membrane damage, GFP-MG53 fusion protein was expressed in C2C12 myoblast cells (FIG. 21a). […] Acute injury of the cell generated by penetration of a microelectrode caused rapid translocation of MG53-containing vesicles at the injury site (arrow, right panel). […] C2C12 cells transiently transfected with GFP-MG53 was incubated with 20 μM Zn-HPT. Under control condition (0 min), GFP-MG53 was distributed in the cytosol, as well as intracellular vesicles (FIG. 21d).
An active ingredient from notoginseng can facilitate MG53-membrane repair function. GFP-MG53 was expressed in C2C12 cells and then these cells were perfused with an alcohol extract from notoginseng. […] Based on this observation, we reasoned that a therapeutic approach with the combination of MG53 and notoginseng may provide additive protective effects in preventing both inflammation and membrane damage to the cells, and thus can improve the function of MG53 when applied in tandem with recombinant MG53 protein or when applied alone as a supplement of pharmaceutical.

[4] = PIP2-Strip lipid dot blot; assay type: binding; settings: 1 μg/ml
HEK293 cells [5] = test: LDH release after electroporation, HEK293; assay type: cell-based, human; settings: 10 ug/mL, extracellular; various field strengths
Procedure: Genetic overexpression of MG53 can prevent membrane damage. Human embryonic kidney (HEK293) cells were transfected with RFP-MG53 or RFP and then electroporated with fields of varying strength (FIG. 32). The amount of membrane damage was measured by assessing the amount of lactate dehydrogenase (LDH) that leaks into the extracellular media out of holes in the plasma membrane produced by electroporation. The more damage that occurs to the membrane, the higher the reading on the LDH assay will be. […] Thus, expression of exogenous MG53 in non-muscle cells can increase the capacity for cell membrane repair in such non-muscle cells.
(§2) Recombinant MG53 can protect kidney cells from cell membrane damage. (a) HEK293 cells (8×10^4) were treated with 10 ug/mL recombinant human MG53 or vehicle control and then electroporated at various field strengths (FIG. 35). […] (b) MG53 or a vehicle control was added to recombinant LDH to generate standard curves for LDH activity.

HEPM cells [6] = test: LDH release after electroporation, HEPM; assay type: cell-based, human; settings: 10 ug/mL, extracellular; various field strengths
Procedure: as §2, with “gum lining” for “kidney”, “HEPM” for “HEK293”, “(5×10^4)” for “(8×10^4)”, “36).” for “35).”

HEK293 cells [7] = test: LDH release after glass microbead damage, HEK293; assay type: cell-based, human; settings: glass microbeads
Procedure: Recombinant MG53 can protect kidney cells from mechanical cell membrane damage. HEK293 cells (8×10^4) were treated with glass microbeads to induce mechanical damage (FIG. 37). Different does of recombinant human MG53 or vehicle control was applied to the samples when glass beads were added to the media. Cells were rotated on an orbital shaker and then the supernatant was analyzed for LDH levels.
(§3) Externally applied recombinant MG53 requires phosphatidylserine (PS) binding to reseal damaged membranes. HEK293 cells were treated with recombinant human MG53 or vehicle and them damaged by shaking in the presence of glass microbeads (black bars) (FIG. 40). Membrane damage is measured by LDH release from cells that is recorded by colormetric assay recorded at 488 nm. […] Thus, MG53 must be able to bind exposed PS on damaged cells in order to facilitate membrane repair. * p<0.05
as §3, with “HEK293” for “Externally applied recombinant MG53 requires phosphatidylserine (PS) binding to reseal damaged membranes. HEK293”, “41).” for “40).”

[8] = tested on: Hela cervical epithelial cells; test: Resealing after glass bead damage, Hela; assay type: cell-based; settings: glass beads
From the text: Effects of MG53 are specific to the function of the protein.

HEPM cells [9] = test: LDH release after LPS treatment; assay type: cell-based, human; settings: LPS 1 mg/mL, 24 hours, co-incubation
From the text: Lipopolysaccarides can induce membrane damage in HEPM cells that can be prevented by exposure to MG53.

[10] = tested on: Human IB3 airway epithelial cells; test: LDH release after glass bead damage, IB3; assay type: cell-based; settings: glass beads; external protein
Procedure: External MG53 can reseal to membrane damage in airway epithelial cells. Human IB3 airway epithelial cells were treated with external recombinant human MG53 or vehicle control and then exposed to mechanical membrane damage by glass beads (FIG. 48).

[11] = tested on: C2C12 cells expressing GFP-MG53; test: Repair of acute membrane damage: translocation to microelectrode injury site; assay type: cell-based, murine; settings: C2C12 cells
Procedure: To follow the process of intracellular vesicle translocation associated with repair of acute membrane damage, GFP-MG53 fusion protein was expressed in C2C12 myoblast cells (FIG. 21a). […]
Cell culture—The C2C12 murine myoblast cell line used for all studies was purchased from the American Type Culture Collection (Manassas, Va.). Cells were grown in a humidified environment at 37° C. and 5% CO2 in DMEM medium for C2C12 or Ham's F12 medium for CHO cells supplemented with 10% fetal bovine serum, 100 units/ml penicillin and 100 ug/ml streptomycin. In order to induce myotube differentiation, C2C12 myoblasts were grown to confluence and the medium was switched to DMEM containing 2% horse serum, penicillin (100 U/ml), streptomycin (100 μg/ml). For transient transfections, C2C12 myoblasts or CHO cells were plated at 70% confluence in glass-bottom dishes. After 24 hours, cells were transfected with plasmids described above using GeneJammer reagent (Stratagene). Cells were visualized by live cell confocal imaging at 24-48 hours after transfection or at times indicated for individual experiments. In some experiments, C2C12 myoblasts were allowed to differentiate into myotubes for the indicated time before observation.
Live cell imaging—To monitor intracellular trafficking of GFP-MG53 either CHO or C2C12 cells were cultured in glass-bottom dishes (Bioptechs Inc.) and transfected with the plasmids described above. Fluorescence images (512×512) were captured at 3.18 s/frame using a BioRad 2100 Radiance laser scanning confocal microscope with a 63×1.3NA oil immersion objective.

[12] = tested on: E3-ligase activity of MG53; test: In vitro ubiquitination with ATP, ubiquitin, E1 and E2 enzymes; assay type: biochemical; settings: Ubc4 or UbcH5 as E2
Procedure: To test whether MG53 can catalyze ubiquitination in vitro, we prepared a recombinant maltose-binding protein (MBP) fusion protein for MG53. MBP-MG53 was incubated with ATP, ubiquitin, E1 and E2 enzymes, and subjected to immunoblotting with the anti-MBP antibody. […] The exclusion of either ubiquitin, E1 or E2 (UbcH5) from the assay abolished the appearance of such ladders, confirming that the modification acquired by MBP-MG53 was indeed auto-ubiquitination. […] Thus, MG53 is a Ring-finger type ubiquitin ligase that couples with Ubc4/5 sub-family of E2 enzymes.

mg53−/− myotubes = test: Membrane repair in transfected mg53−/− myotubes; assay type: cell-based, mice; settings: primary cultured mg53−/− myotubes
From the text: The entry of FM4-64, a red-shifted variant of FM1-43, was used as an index of membrane repair capacity in mg53−/− myotubes transfected with GFP-MG53 and GFP-C242A. Following UV-bleaching of the green fluorescence, rapid translocation of GFP-MG53 took place at the injury site, whereas GFP-C242A remained static due to its defective oligomerization properties (FIG. 16E, 17A).
Similar defects with GFP-C29L were also observed in C2C12 myotubes (FIG. 18e, middle).

Molecule: [O-]n1ccccc1=S.[O-]n1ccccc1=S.[Zn+2] [Zn-HPT, Zn-1-hydroxypyridine-2-thine]
- membrane repair capacity (FM1-43 dye entry) [1]: increased membrane repair capacity
- membrane repair capacity (FM1-43 dye entry) [2]: did not produce protective effect on membrane repair
- redistribution of GFP-MG53 [3]: caused redistribution of GFP-MG53 toward the cell surface membrane and the intracellular membrane compartments

B1: recombinant human MG53: recombinant mitsugumin53 protein, muscle-specific TRIM family protein, applied extracellularly (protein)
chain: MSAAPGLLHQELSCPLCLQLFDAPVTAECGHSFCRACLGRVAGEPAADGTVLCPCCQAPTRPQALSTNLQLARLVEGLAQVPQGHCEEHLDPLSIYCEQDRALVCGVCASLGSHRGHRLLPAAEAHARLKTQLPQQKLQLQEACMRKEKSVAVLEHQLVEVEETVRQFRGAVGEQLGKMRVFLAALEGSLDCEAERVRGEAGVALRRELGSLNSYLEQLRQMEKVLEEVADKPQTEFLMKYCLVTSRLQKILAESPPPARLDIQLPIISDDFKFQVWRKMFRALMPALEELTFDPSSAHPSLVVSSSGRRVECSEQKAPPAGEDPRQFDKAVAVVAHQQLSEGEHYWEVDVGDKPRWALGVIAAEAPRRGRLHAVPSQGLWLLGLREGKILEAHVEAKEPRALRSPERRPTRIGLYLSFGDGVLSFYDASDADALVPLFAFHERLPRPVYPFFDVCWHDKGKNAQPLLLVGPEGAEA
- lipid binding [4]: specifically binds phosphatidylserine (PS) and not other membrane lipids
- membrane damage (LDH) from electroporation (HEK293 cells [5]): can prevent damage from electroporation
- membrane damage (LDH) from electroporation (HEPM cells [6]): can prevent damage from electroporation
- saturating dose (HEK293 cells [7]): ~10 µg/mL
- mechanical membrane damage (LDH levels) (HEK293 cells [7]; different doses): can prevent mechanical membrane damage
- membrane resealing [8]: effective at resealing damage
- membrane resealing ([8]; recombinant protein boiled): can no longer facilitate membrane resealing
- prevention of LPS induced damage (LDH release) (HEPM cells [9]): can prevent damage to HEPM cells produced by LPS
- cell membrane damage (LDH release) [10]: could prevent cell membrane damage due to mechanical damage

B2: C29L: MG53 mutant, Cys-29 in the Ring-finger motif replaced with leucine; GFP fusion, MBP fusion in b268 (protein)
chain: MSAAPGLLRQELSCPLCLQLFDAPVTAELGHSFCRACLIRVAGEPAADGTVACPCCQAPTRPQALSTNLQLSRLVEGLAQVPQGHCEEHLDPLSIYCEQDRTLVCGVCASLGSHRGHRLLPAAEAQARLKTQLPQQKMQLQEACMRKEKTVAVLEHQLVEVEETVRQFRGAVGEQLGKMRMFLAALESSLDREAERVRGDAGVALRRELSSLNSYLEQLRQMEKVLEEVADKPQTEFLMKFCLVTSRLQKILSESPPPARLDIQLPVISDDFKFQVWKKMFRALMPALEELTFDPSSAHPSLVVSSSGRRVECSDQKAPPAGEDTRQFDKAVAVVAQQLLSQGEHYWEVEVGDKPRWALGVMAADASRRGRLHAVPSQGLWLLGLRDGKILEAHVEAKEPRALRTPERPPARIGLYLSFADGVLAFYDASNPDVLTPIFSFHERLPGPVYPIFDVCWHDKGKNAQPLLLVGPEQEQA
modifications: left off: large carriers
notes: MG53 mutant, Cys-29 in the Ring-finger motif replaced with leucine; GFP fusion, MBP fusion
- Membrane Repair (+Zn-HPT) ([11]; 2 μM Zn-HPT, listed as GFP-C29L): partially rescue the movement
- translocation to injury site and membrane repair function of GFP fusion protein ([11]; acute membrane damage): immobile and ineffective in repair of membrane injury
- Membrane Repair (−Zn-HPT) ([11]; extracellular solution with nominal free zinc, listed as GFP-C29L): defective movement toward the acute injury site
- ubiquitination / intrinsic E3-ligase activity [12]: significantly reduced
- translocation to the plasma membrane following injury (mg53−/− myotubes): remained generally unresponsive to acute cell injury
